Legend:
[1] = tested on: T1, wild type Penicillium oxalicum glucoamylase
T1 sequence: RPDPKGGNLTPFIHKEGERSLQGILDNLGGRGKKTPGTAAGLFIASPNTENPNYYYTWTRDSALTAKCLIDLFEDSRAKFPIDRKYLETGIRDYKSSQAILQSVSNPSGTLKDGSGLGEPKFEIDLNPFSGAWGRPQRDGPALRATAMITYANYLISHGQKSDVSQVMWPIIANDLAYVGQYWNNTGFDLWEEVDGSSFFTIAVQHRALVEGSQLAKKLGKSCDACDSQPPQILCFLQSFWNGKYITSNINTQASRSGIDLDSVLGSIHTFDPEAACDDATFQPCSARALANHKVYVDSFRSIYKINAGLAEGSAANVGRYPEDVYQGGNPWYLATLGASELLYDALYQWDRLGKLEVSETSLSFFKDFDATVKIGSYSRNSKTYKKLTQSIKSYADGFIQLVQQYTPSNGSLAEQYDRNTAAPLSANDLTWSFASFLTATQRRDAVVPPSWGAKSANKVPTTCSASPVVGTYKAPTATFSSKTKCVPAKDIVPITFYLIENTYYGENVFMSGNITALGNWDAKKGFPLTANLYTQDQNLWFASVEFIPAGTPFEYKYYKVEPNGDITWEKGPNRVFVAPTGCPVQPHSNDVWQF

[2] = molecular target: Glucoamylase PE001: variant of the Penicillium oxalicum glucoamylase having a K79V substitution (Penicillium oxalicum); assay: cell-based or functional assay
[3] = molecular target: wild type Penicillium oxalicum glucoamylase (Penicillium oxalicum); assay: cell-based or functional assay

Substance | cleaved glucoamylase (ca. 60 kDa), SDS-PAGE after protease treatment overnight at 4 °C [1] [%] | cleaved glucoamylase (ca. 60 kDa), SDS-PAGE after protease treatment overnight at 32 °C [1] [%] | intact glucoamylase (ca. 70 kDa), SDS-PAGE after protease treatment overnight at 4 °C [2] [%] | intact glucoamylase (ca. 70 kDa), SDS-PAGE after protease treatment overnight at 32 °C [2] [%] | intact glucoamylase (ca. 70 kDa), SDS-PAGE after protease treatment overnight at 4 °C [3] [%] | intact glucoamylase (ca. 70 kDa), SDS-PAGE after protease treatment overnight at 32 °C [3] [%]
aorsin | 60 | 90 | – | – | – | –
aspergillopepsin I | – | 10 | – | – | – | –
aspergillopepsin I (enzyme) | – | – | 100 | 100 | 100 | 90
aorsin (enzyme) | – | – | 100 | 100 | 40 | 10

Source: patent US20200095615A1
